The target of the experiment is U. parvum Smc (Ureaplasma parvum). The experiment is described as follows: cross-linking.

The record followed here is publication doi:10.1101/2025.05.11.653314.

A word on the stoichiometry N: it is the number of molecules, sites or subunits per partner or assembly.

U. parvum Smc (enzyme) registered a stoichiometry N of 2.
